According to patent publication US20190202883A1 (Takeda / Millennium, published 2019):
Square brackets hold non-standard residues; d marks the D form. Side chains are listed from the residue outwards. Phe(2-F) = N[C@@H](Cc1ccccc1F)C(=O)O; αMeF = C[C@](N)(Cc1ccccc1)C(=O)O; Iva = CC[C@](C)(N)C(=O)O; Oda = not defined here; Aib = CC(C)(N)C(=O)O

T1: human GIPR (human, UniProt P48546 22-466)
T1 sequence (looked up): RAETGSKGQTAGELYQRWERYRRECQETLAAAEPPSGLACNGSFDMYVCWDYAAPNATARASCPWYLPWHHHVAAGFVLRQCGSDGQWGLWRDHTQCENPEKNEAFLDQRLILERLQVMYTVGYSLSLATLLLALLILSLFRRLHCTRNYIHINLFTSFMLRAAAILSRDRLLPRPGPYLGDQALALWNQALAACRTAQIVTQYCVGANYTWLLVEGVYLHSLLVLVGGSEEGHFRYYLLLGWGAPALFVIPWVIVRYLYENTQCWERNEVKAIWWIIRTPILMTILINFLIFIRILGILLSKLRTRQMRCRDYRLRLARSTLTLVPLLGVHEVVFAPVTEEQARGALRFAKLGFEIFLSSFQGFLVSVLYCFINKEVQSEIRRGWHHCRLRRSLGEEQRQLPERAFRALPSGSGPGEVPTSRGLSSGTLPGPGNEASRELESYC

T2: human NPY2R (human, UniProt P49146 1-381)
T2 sequence (looked up): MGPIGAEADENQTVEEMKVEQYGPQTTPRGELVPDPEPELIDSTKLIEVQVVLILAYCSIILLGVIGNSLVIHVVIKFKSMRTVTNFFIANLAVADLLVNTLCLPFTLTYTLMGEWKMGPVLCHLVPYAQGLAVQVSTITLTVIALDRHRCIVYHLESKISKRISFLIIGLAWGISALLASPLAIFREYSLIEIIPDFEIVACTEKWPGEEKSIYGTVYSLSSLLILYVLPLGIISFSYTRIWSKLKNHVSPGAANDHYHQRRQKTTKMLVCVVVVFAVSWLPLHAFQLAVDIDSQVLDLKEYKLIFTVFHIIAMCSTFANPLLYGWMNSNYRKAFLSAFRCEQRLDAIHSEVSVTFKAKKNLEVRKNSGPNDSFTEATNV


What was measured:
Assay in all cases: cell-based or functional assay
human GIPR = target: T1, human GIPR
human NPY2R = target: T2, human NPY2R
human GLP-1R = human GLP-1R (human, UniProt P43220 24-463)

| Agonist activity (EC50), Cre-luc reporter assay (human GIPR) [nM] | Agonist activity (EC50), Cre-luc reporter assay (human NPY2R) [nM] | Agonist activity (EC50), Cre-luc reporter assay (human GLP-1R) [nM] | Binder |
| --- | --- | --- | --- |
| 0.38 | 1.2 | 4.5 | Me-Y[Aib]EGT[αMeF]TSDK([Gly-Gly-Gly-Gly-Oda])SK[Aib]LDKQRQ[Iva]EFVRHLLNK[Aib]TRQRY-NH2 (reading uncertain; also: printed as Me-Tyr-Aib-Glu-Gly-Thr-αMePhe-Thr-Ser-Asp-Lys(-Gly-Gly-Gly-Gly-Oda)-Ser-Lys-Aib-Leu-Asp-Lys-Gln-Arg-Gln-Iva-Glu-Phe-Val-Arg-His-Leu-Leu-Asn-Lys-Aib-Thr-Arg-Gln-Arg-Tyr-NH2) |
| 0.051 | 0.068 | 0.069 | Me-Y[Aib]EGT[αMeF]TSDK([Gly-Gly-Gly-Gly-Pal])[Aib]K[Aib]LDKQRQ[Iva]EFVRHLLNK[Aib]TRQRY-NH2 |
| 0.048 | 0.02 | 0.073 | Me-Y[Aib]EGT[αMeF]TSDK([Gly-Gly-Gly-Gly-Pal])SK[Aib]LDKQRQ[Iva]EFVRHLLNK[Aib]TRQRY-NH2 |
| 0.082 | 0.067 | 0.13 | Me-Y[Aib]EGT[αMeF]TSDK([Gly-Gly-Gly-Gly-Pal])[Aib]I[Aib]LEKQRQ[Iva]EFVRHLLNK[Aib]TRQRY-NH2 |
| 0.038 | 0.03 | 0.043 | Me-Y[Aib]EGT[αMeF]TSDK([Gly-Gly-Gly-Gly-Pal])[Aib]I[Aib]LDKQAQ[Iva]EFVRHLLNK[Aib]TRQRY-NH2 |

The next lines start with the binder.

| Binder | Agonist activity (EC50), Cre-luc reporter assay (human GIPR) [nM] | Agonist activity (EC50), Cre-luc reporter assay (human NPY2R) [nM] | Agonist activity (EC50), Cre-luc reporter assay (human GLP-1R) [nM] |
| --- | --- | --- | --- |
| Me-Y[Aib]EGT[αMeF]TSDK([Gly-Gly-Gly-Gly-Oda])[Aib]I[Aib]LDKQAQ[Iva]EFVRHLLNK[Aib]TRQRY-NH2 (reading uncertain; also: printed as Me-Tyr-Aib-Glu-Gly-Thr-αMePhe-Thr-Ser-Asp-Lys(-Gly-Gly-Gly-Gly-Oda)-Aib-Ile-Aib-Leu-Asp-Lys-Gln-Ala-Gln-Iva-Glu-Phe-Val-Arg-His-Leu-Leu-Asn-Lys-Aib-Thr-Arg-Gln-Arg-Tyr-NH2) | 0.074 | 3.3 | 0.15 |
| H-Y[Aib]EGT[αMeF]TSDK([Gly-Gly-Gly-Gly-Pal])[Aib]I[Aib]LEKQRQ[Iva]EFVRHLLNK[Aib]TRQRY-NH2 | 0.049 | 0.057 | 0.061 |
| H-Y[Aib]EGT[αMeF]TSDK([Gly-Gly-Gly-Gly-Pal])[Aib]I[Aib]LDKQRQ[Iva]EFVRHLLNK[Aib]TRQR[Phe(2-F)]-NH2 | 0.35 | 0.22 | 0.38 |
| H-Y[Aib]EGT[αMeF]TSDK([Gly-Gly-Gly-Gly-Oda])[Aib]I[Aib]LDKQAQ[Iva]EFVRHLLNK[Aib]TRQRY-NH2 (reading uncertain; also: printed as H-Tyr-Aib-Glu-Gly-Thr-αMePhe-Thr-Ser-Asp-Lys(-Gly-Gly-Gly-Gly-Oda)-Aib-Ile-Aib-Leu-Asp-Lys-Gln-Ala-Gln-Iva-Glu-Phe-Val-Arg-His-Leu-Leu-Asn-Lys-Aib-Thr-Arg-Gln-Arg-Tyr-NH2) | 0.074 | 2.4 | 0.078 |
| H-Y[Aib]EGT[αMeF]TSDK([Gly-Gly-Gly-Gly-Pal])SK[Aib]LDKQRQ[Iva]EFVRHLLNK[Aib]TRQRY-NH2 | 0.091 | 0.059 | 0.13 |
| H-Y[Aib]EGT[αMeF]TSDK([Gly-Gly-Gly-Gly-Oda])SK[Aib]LDKQRQ[Iva]EFVRHLLNK[Aib]TRQRY-NH2 (reading uncertain; also: printed as H-Tyr-Aib-Glu-Gly-Thr-αMePhe-Thr-Ser-Asp-Lys(-Gly-Gly-Gly-Gly-Oda)-Ser-Lys-Aib-Leu-Asp-Lys-Gln-Arg-Gln-Iva-Glu-Phe-Val-Arg-His-Leu-Leu-Asn-Lys-Aib-Thr-Arg-Gln-Arg-Tyr-NH2) | 0.61 | 1.3 | 1.3 |
| H-Y[Aib]EGT[αMeF]TSDK([Gly-Gly-Gly-Gly-Oda])[Aib]I[Aib]LEKQRQ[Iva]EFVRHLLNK[Aib]TRQRY-NH2 (reading uncertain; also: printed as H-Tyr-Aib-Glu-Gly-Thr-αMePhe-Thr-Ser-Asp-Lys(-Gly-Gly-Gly-Gly-Oda)-Aib-Ile-Aib-Leu-Glu-Lys-Gln-Arg-Gln-Iva-Glu-Phe-Val-Arg-His-Leu-Leu-Asn-Lys-Aib-Thr-Arg-Gln-Arg-Tyr-NH2) | 0.52 | 2.7 | 0.25 |
| H-Y[Aib]EGT[αMeF]TSDK([Gly-Gly-Gly-Gly-Pal])[Aib]I[Aib]LDKQAQ[Iva]EFVRHLLNK[Aib]TRQRY-NH2 | 0.041 | 0.038 | 0.042 |
